Patent publication US20210253718A1 (MODMAB THERAPEUTICS, published 2021)

T1: FZD6 cysteine-rich domain (CRD), MYC-tagged and GPI-anchored on CHO cells (human, UniProt O60353 20-146, GPI anchor)
T1 construct: also called FZD6 CRD; CHO-myc-FZDGPI; not shown: MYC tag and GPI anchor signal
T1 sequence: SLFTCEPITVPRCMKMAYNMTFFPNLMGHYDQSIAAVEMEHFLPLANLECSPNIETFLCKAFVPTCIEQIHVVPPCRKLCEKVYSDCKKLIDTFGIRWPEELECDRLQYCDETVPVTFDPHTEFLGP

T2: FZD3 cysteine-rich domain (CRD), MYC-tagged and GPI-anchored on CHO cells (human, UniProt Q9NPG1 24-150, GPI anchor)
T2 construct: domain: cysteine-rich domain (CRD); also called FZD3 CRD; CHO-myc-FZDGPI; not shown: MYC tag and GPI anchor signal
T2 sequence (looked up): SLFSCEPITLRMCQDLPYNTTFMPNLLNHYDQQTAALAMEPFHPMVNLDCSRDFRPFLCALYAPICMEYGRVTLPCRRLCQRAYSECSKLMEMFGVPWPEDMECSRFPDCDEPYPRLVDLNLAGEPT

T3: FZD4 cysteine-rich domain (CRD), MYC-tagged and GPI-anchored on CHO cells (human, UniProt Q9ULV1 42-167, GPI anchor)
T3 construct: also called FZD4 CRD; CHO-myc-FZDGPI; not shown: MYC tag and GPI anchor signal
T3 sequence: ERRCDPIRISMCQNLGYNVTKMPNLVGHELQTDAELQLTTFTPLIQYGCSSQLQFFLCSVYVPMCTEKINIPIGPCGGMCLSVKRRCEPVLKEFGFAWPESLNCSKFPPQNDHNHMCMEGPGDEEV

T4: FZD9 cysteine-rich domain (CRD), MYC-tagged and GPI-anchored on CHO cells (human, UniProt O00144 35-161, GPI anchor)
T4 construct: also called FZD9 CRD; CHO-myc-FZDGPI; not shown: MYC tag and GPI anchor signal
T4 sequence: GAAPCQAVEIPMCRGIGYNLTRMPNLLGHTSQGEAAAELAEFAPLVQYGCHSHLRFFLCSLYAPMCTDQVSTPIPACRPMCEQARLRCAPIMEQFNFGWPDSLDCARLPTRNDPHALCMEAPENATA

T5: FZD10 cysteine-rich domain (CRD), MYC-tagged and GPI-anchored on CHO cells (human, UniProt Q9ULW2 30-156, GPI anchor)
T5 construct: also called FZD10 CRD; CHO-myc-FZDGPI; not shown: MYC tag and GPI anchor signal
T5 sequence: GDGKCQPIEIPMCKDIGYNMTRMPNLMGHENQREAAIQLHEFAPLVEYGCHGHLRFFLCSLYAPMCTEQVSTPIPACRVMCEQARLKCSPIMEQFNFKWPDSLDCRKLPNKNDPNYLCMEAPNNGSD

T6: FZD8 cysteine-rich domain (CRD), MYC-tagged and GPI-anchored on CHO cells (human, UniProt Q498S8 31-155 (rat entry), GPI anchor)
T6 construct: also called FZD8 CRD; CHO-myc-FZDGPI; not shown: MYC tag and GPI anchor signal
T6 sequence: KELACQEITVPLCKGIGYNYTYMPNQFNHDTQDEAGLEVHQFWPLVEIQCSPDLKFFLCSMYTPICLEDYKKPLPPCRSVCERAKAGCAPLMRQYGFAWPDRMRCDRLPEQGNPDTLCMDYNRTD

T7: FZD5 cysteine-rich domain (CRD), MYC-tagged and GPI-anchored on CHO cells (human, UniProt Q13467 29-156, GPI anchor)
T7 construct: also called FZD5 CRD; CHO-myc-FZDGPI; not shown: MYC tag and GPI anchor signal
T7 sequence: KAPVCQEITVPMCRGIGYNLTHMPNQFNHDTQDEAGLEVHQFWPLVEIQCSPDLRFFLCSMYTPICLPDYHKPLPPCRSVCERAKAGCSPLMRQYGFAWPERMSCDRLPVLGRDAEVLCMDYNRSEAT

T8: FZD8-Fc (UniProt Q9H461 28-158, limits assumed)
T8 construct: extracellular domain; also called Frizzled-Fc chimera (FZD8); not shown: Fc part
T8 sequence (looked up): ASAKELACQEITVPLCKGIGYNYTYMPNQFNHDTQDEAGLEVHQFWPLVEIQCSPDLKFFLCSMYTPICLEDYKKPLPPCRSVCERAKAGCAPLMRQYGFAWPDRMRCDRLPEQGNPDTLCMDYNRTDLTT

T9: recombinant human FZD5-Fc chimera (R&D Systems, Catalog no. 1617-FZ) (human, UniProt Q13467 27-167)
T9 construct: used for selection and ELISA; Fc part of the bought chimera not given
T9 sequence: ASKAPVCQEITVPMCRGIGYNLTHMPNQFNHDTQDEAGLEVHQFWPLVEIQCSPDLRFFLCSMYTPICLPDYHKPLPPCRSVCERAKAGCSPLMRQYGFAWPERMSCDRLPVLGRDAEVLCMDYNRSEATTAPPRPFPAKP


Legend:
[1] = target: T1, FZD6 cysteine-rich domain (CRD), …; assay: immunofluorescence, CHO-CRD cells
[2] = target: T2, FZD3 cysteine-rich domain (CRD), …; assay: immunofluorescence, CHO-CRD cells
[3] = target: T10, FZD2 cysteine-rich domain (CRD), MYC-tagged and GPI-anchored on CHO cells (human, UniProt Q14332 35-161); assay: immunofluorescence, CHO-CRD cells
[4] = target: T3, FZD4 cysteine-rich domain (CRD), …; assay: immunofluorescence, CHO-CRD cells
[5] = target: T4, FZD9 cysteine-rich domain (CRD), …; assay: immunofluorescence, CHO-CRD cells
[6] = target: T5, FZD10 cysteine-rich domain (CRD), …; assay: immunofluorescence, CHO-CRD cells
[7] = target: T6, FZD8 cysteine-rich domain (CRD), …; assay: flow cytometry, CHO-CRD cells;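 also: flow cytometry of Fab binding to CHO cells overexpressing a Frizzled CRD, with binding defined as median fluorescence over twice that of CHO cells lacking any Frizzled CRD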
Experimental: (§1) Binding was measured via flow cytometry analysis of CHO cells overexpressing CRD of FZD1, FZD2, FZD3, FZD4, FZD5, FZD6, FZD7, FZD8, FZD9 or FZD10. Median fluorescence values are shown.

[8] = target: T7, FZD5 cysteine-rich domain (CRD), …; assay: flow cytometry, CHO-CRD cells;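 also: flow cytometry of Fab binding to CHO cells overexpressing a Frizzled CRD, with binding defined as median fluorescence over twice that of CHO cells lacking any Frizzled CRD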
Experimental: as §1

[9] = target: T1, FZD6 cysteine-rich domain (CRD), …; assay: flow cytometry, CHO-CRD cells;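 also: flow cytometry of Fab binding to CHO cells overexpressing a Frizzled CRD, with binding defined as median fluorescence over twice that of CHO cells lacking any Frizzled CRD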
Experimental: as §1

[10] = target: T2, FZD3 cysteine-rich domain (CRD), …; assay: flow cytometry, CHO-CRD cells;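 also: flow cytometry of Fab binding to CHO cells overexpressing a Frizzled CRD, with binding defined as median fluorescence over twice that of CHO cells lacking any Frizzled CRD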
Experimental: as §1

[11] = target: FZD7 cysteine-rich domain (CRD), MYC-tagged and GPI-anchored on CHO cells (human, UniProt O75084 45-169); assay: flow cytometry, CHO-CRD cells
Experimental: as §1

[12] = target: T10, FZD2 cysteine-rich domain (CRD), …; assay: flow cytometry, CHO-CRD cells
Experimental: as §1

[13] = target: T3, FZD4 cysteine-rich domain (CRD), …; assay: flow cytometry, CHO-CRD cells
Experimental: as §1

[14] = target: T4, FZD9 cysteine-rich domain (CRD), …; assay: flow cytometry, CHO-CRD cells
Experimental: as §1

[15] = target: T5, FZD10 cysteine-rich domain (CRD), …; assay: flow cytometry, CHO-CRD cells
Experimental: as §1

FZD8-Fc = target: T8, FZD8-Fc; assay: SPR, Frizzled-Fc chimera;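 also: binding targets are Fc fusions carrying an extracellular Frizzled fragment that contains the CRD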
Experimental: (§2) Analysis was performed using Frizzled-Fc chimera binding targets, in which the Frizzled segment consists of an extracellular portion of Frizzled which includes the CRD. Legend: Kₐ, association constant; Kd, dissociation constant; KD, equilibrium dissociation constant.

[16] = target: T9, recombinant human FZD5-Fc chimera (R&D …); assay: SPR, Frizzled-Fc chimera;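 also: binding targets are Fc fusions carrying an extracellular Frizzled fragment that contains the CRD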
Experimental: as §2

| Binder | binding result [1] | binding result [2] | binding result [3] | binding result [4] | binding result [5] | binding result [6] | median fluorescence [7] | median fluorescence [8] | median fluorescence [9] | median fluorescence [10] | median fluorescence [11] | median fluorescence [12] | median fluorescence [13] | median fluorescence [14] | median fluorescence [15] | kon (FZD8-Fc) [M⁻¹ s⁻¹] | kon [16] [M⁻¹ s⁻¹] | other results |
| --- | --- | --- | --- | --- | --- | --- | --- | --- | --- | --- | --- | --- | --- | --- | --- | --- | --- | --- |
| Fab-2910 (Fab, V domains shown, Fab) VH: EVQLVESGGGLVQPGGSLRLSCAASGFNISYSYMHWVRQAPGKGLEWVASIYSSSSSTSYADSVKGRFTISADTSKNTAYLQMNSLRAEDTAVYYCARGAMDYWGQGTLVTVSS VL: DIQMTQSPSSLSASVGDRVTITCRASQSVSSAVAWYQQKPGKAPKLLIYSASSLYSGVPSRFSGSRSGTDFTLTISSLQPEDFATYYCQQWYGSHLITFGQGTKVEIK | no binding | no binding | no binding | no binding | no binding | no binding | 7.91 | 30.5 | 2.79 | 3.28 | 10.2 | 4.47 | 5 | 2.74 | 2.81 | – | – | – |
| Fab-2929 (Fab, V domains shown, Fab; also called Fv-2929) VH: EVQLVESGGGLVQPGGSLRLSCAASGFNISYYYIHWVRQAPGKGLEWVASIYPSSSSTSYADSVKGRFTISADTSKNTAYLQMNSLRAEDTAVYYCARGAMDYWGQGTLVTVSS VL: DIQMTQSPSSLSASVGDRVTITCRASQSVSSAVAWYQQKPGKAPKLLIYSASSLYSGVPSRFSGSRSGTDFTLTISSLQPEDFATYYCQQWYSSYGLITFGQGTKVEIK | no binding | no binding | no binding | no binding | no binding | no binding | 7.91 | 27.1 | 2.84 | 3.55 | 13 | 4.29 | 3.72 | 3.08 | 2.64 | – | – | – |
| IgG-2929 (antibody, V domains shown, also called Fv-2929) VH: EVQLVESGGGLVQPGGSLRLSCAASGFNISYYYIHWVRQAPGKGLEWVASIYPSSSSTSYADSVKGRFTISADTSKNTAYLQMNSLRAEDTAVYYCARGAMDYWGQGTLVTVSS VL: DIQMTQSPSSLSASVGDRVTITCRASQSVSSAVAWYQQKPGKAPKLLIYSASSLYSGVPSRFSGSRSGTDFTLTISSLQPEDFATYYCQQWYSSYGLITFGQGTKVEIK | – | – | – | – | – | – | – | – | – | – | – | – | – | – | – | 3.27e+06 | 2.77e+06 | – |
| IgG-2919 (antibody, V domains shown, human IgG1 heavy chain (hG1), human kappa light chain (hK)) VH: EVQLVESGGGLVQPGGSLRLSCAASGFNISYSYIHWVRQAPGKGLEWVASIYSSSGSTSYADSVKGRFTISADTSKNTAYLQMNSLRAEDTAVYYCARGAIDYWGQGTLVTVSS VL: DIQMTQSPSSLSASVGDRVTITCRASQSVSSAVAWYQQKPGKAPKLLIYSASSLYSGVPSRFSGSRSGTDFTLTISSLQPEDFATYYCQQWYSSGHVLITFGQGTKVEIKR | – | – | – | – | – | – | – | – | – | – | – | – | – | – | – | 533000 | 416000 | Kd (FZD8-Fc): 0.0427 nM; koff (FZD8-Fc): 2.28e-05 s⁻¹; Kd [16]: 0.194 nM; koff [16]: 8.06e-05 s⁻¹ |
| Fab-2918 (Fab, V domains shown, Fab; also called Fv-2918) VH: EVQLVESGGGLVQPGGSLRLSCAASGFNLSYSSIHWVRQAPGKGLEWVASIYSSYSSTSYADSVKGRFTISADTSKNTAYLQMNSLRAEDTAVYYCARFGYWAIDYWGQGTLVTVSS VL: DIQMTQSPSSLSASVGDRVTITCRASQSVSSAVAWYQQKPGKAPKLLIYSASSLYSGVPSRFSGSRSGTDFTLTISSLQPEDFATYYCQQAFGASLFTFGQGTKVEIK | no binding | no binding | no binding | no binding | no binding | no binding | 7.57 | 29.2 | 2.69 | 3.55 | 7.5 | 4.41 | 4.07 | 3.11 | 2.81 | – | – | – |
| Fab-2917 (Fab, V domains shown, Fab; also called Fv-2917) VH: EVQLVESGGGLVQPGGSLRLSCAASGFNFSSSSIHWVRQAPGKGLEWVASISSSYGYTYYADSVKGRFTISADTSKNTAYLQMNSLRAEDTAVYYCARAVWYYWWVWGGFDYWGQGTLVTVSS VL: DIQMTQSPSSLSASVGDRVTITCRASQSVSSAVAWYQQKPGKAPKLLIYSASSLYSGVPSRFSGSRSGTDFTLTISSLQPEDFATYYCQQSSYSLITFGQGTKVEIK | no binding | no binding | no binding | no binding | no binding | no binding | – | – | 2.89 | 3.46 | 20.5 | 5.57 | 4.14 | 3.49 | 2.76 | – | – | – |
